Results on two molecules are retold here after publication doi:10.1101/2025.01.30.635804, “Emergence of specific binding and catalysis from a designed generalist binding protein” (bioRxiv, 2025).

Numbering of substitutions follows the chain as printed. Numbers in names are those of the source.

The assay is described as follows: Kinetic parameters of reported proteins catalyzing the Kemp elimination (literature). The format is biochemical. The note with it: literature kcat/KM (M-1s-1) divided by total number of amino acids. The source says: Extended Data Table 4 çKinetic parameters of reported proteins catalyzing the Kemp elimination of 5-nitrobenzisoxazole with base-mediated mechanism.
Protein Description kcat/KM, kcat, KM, Amino Ref
AlleyCat Single mutation of 5.8 ND ND 0.08 64
Lysozyme Double mutation of 1.8 ND ND 0.01 138 […]

B1: tKSI: Natural enzyme; ref 68 (protein, UniProt P00947 1-125, looked up)
Steroid Delta-isomerase: MNTPEHMTAVVQRYVAALNAGDLDGIVALFADDATVEDPVGSEPRSGTAAIREFYANSLKLPLAVELTQEVRAVANEAAFAFTVSFEYQGRKTVVAPIDHFRFNGAGKVVSMRALFGEKNIHAGA
Molecule B1 gave an Amino acid efficiency of 0.02.

B2: D38N tKSI: Single mutation of tKSI; ref 68 (protein, UniProt P00947 1-125, looked up, variant D38N)
Steroid Delta-isomerase: B1 Steroid Delta-isomerase with D38N
B2 registered an Amino acid efficiency of 140.
